Entries after “also recorded” stand apart in the source; their conditions may differ. Values belong to the molecule of their own block, whether it stands above or below them. Where no end group is shown, it is not given here. The star is where a group is joined. EDANS = O=S(=O)(O)c1cccc2c(NCCN*)cccc12
Assays:
fibronectin = experiment: Retention linker peptide binding to fibronectin-coated beads; settings: peptides 20 uM
Protocol: (§1) A series of peptides comprising an MMP cleavable site with or without the addition of a tumor retention sequence were synthesized and conjugated to the fluorophore EDANS (5-((2-Aminoethyl)amino)naphthalene-1-sulfonic acid) (custom synthesis, ThermoFisher). […] These peptides were then tested for their ability to bind ECM proteins such as heparin, fibronectin and collagen which are found in abundance in the tumor stroma.
(§2) For fibronectin and collagen binding assays, streptavidin coupled magnetic beads (Mag Sepharose, Cytiva and Dynabeads, ThermoFisher, respectively) were first incubated with biotin-labelled fibronectin (Cytoskeleton) or biotin-labelled collagen IV (Prospec) for 1 Hr with gentle shaking. Following multiple washes, the ECM-coated beads were then incubated with Edans Peptides (20 uM) for 2 hours at room temperature with shaking in neutral or acidic binding buffer. Beads were then washed and resuspended in 100 uL of binding buffer in a black 96-well plate. Peptide binding was quantified by measuring the fluorescence of samples using excitation/emission spectra of EDANS (Ex 340/Em 490).

collagen IV = experiment: Retention linker peptide binding to collagen IV-coated beads; settings: peptides 20 uM, 2 hours
Protocol: as §1, §2

[1] = test system: Heparan sulfate proteoglycans; settings: DTx protein derived; Note 1; cited from earlier work
EMT6 tumor = settings: mouse, in vivo, iv, 8 mg/kg
From the text: We assessed the levels of IL-2 fusion proteins present in tumors in vivo by utilizing fluorescently labelled proteins and real-time whole-body imaging. Non-cleavable Construct GGG and Construct DD were conjugated to Dylight 650 probe according to the manufacturer's protocol (Dylight 650 Antibody labeling kit, ThermoFisher). […] BALB/c mice were subcutaneously inoculated with EMT6 breast cancer syngeneic model and when the average tumor volume reached 240 mm^3, animals were randomized into 3 groups based on tumor volumes (n=2 mice per treatment group).
Following a single dose of the labeled IL-2 fusion proteins to tumor-bearing mice, fluorescent images (excitation 640/emission 680 consistent with Dylight 650 probe ex/em spectra) were captured over 96 hrs on an IVIS system (PerkinElmer, IVIS Lumina Series III) and are shown in FIG. 15A. The fluorescence intensity in tumor area was quantified across the groups, average background tumor fluorescence (group 1) was subtracted from group 2 and 3 values at each time-point, and data was normalized to the initial fluorescence intensity of same amount of each labeled protein.

MC38 tumor = experiment: Intra-tumoral injection in syngeneic MC38 colorectal cancer model; format: in vivo, mice
Protocol: Tumors and body weights were measured twice a week for the duration of the study. Tumor volumes were calculated using the following equation: (longest diameter*shortest diameter^2)/2.

CTLL-2 cells = experiment: CTLL-2 proliferation assay (MTT); format: cell-based
Protocol: (§3) Recombinant MMP9 and/or MMP2 (R&D Systems) was first activated with p-aminophenylmercuric acetate and this activated protease or equivalent amount of activating solution without the protease was used to digest or mock digest the fusion protein for 1 hr, 2 hr, 4 hr and overnight (18-22 hr) at 37 C. Cleavage assays are set up in TCNB buffer: 50 mM Tris, 10 mM CaCl2), 150 mM NaCl, 0.05% Brij-35 (w/v), pH 7.5. Digested protein was aliquoted and stored at −80° C. prior to testing. Aliquots of digests were subsequently analyzed by SDS-PAGE followed by Western blotting to evaluate the extent of cleavage. Digests were also assessed in functional assays such as CTLL-2 proliferation and HEK-Blue Interleukin reporter assays. As shown in FIGS. 2A-E, essentially complete cleavage by MMP9 protease of the fusion proteins with functional site is seen after overnight incubation. In contrast, proteins containing a scrambled MMP cleavage site are not cut (FIG. 2E).
IL-2 activity was measured using either CTLL-2 cells (ATCC) or the reporter cell line HEK Blue IL2 (Invivogen, San Diego). In brief, for the CTLL-2 assay a titration of untreated and digested samples is added to 40 000 CTLL-2 cells per well in 100 ul medium in a 96-well plate and incubated at 37C in 5% CO2 for 18-22 hr. At the end of this period, 50ug/well Thiazolyl Blue Tetrazolium Bromide (MTT) (Sigma-Aldrich) was added and the plate was incubated for 5 hr at 37C in 5% CO2. Cells were lysed with 100 µl/well 10% SDS (Sigma) acidified with HCl, incubated at 37C for 4 hr, and absorbance was read at 570 nm. Recombinant human or mouse IL-2 (Peprotech and R&D systems respectively) was used as a positive control. FIGS. 3A-B, 3K-L and 3N-P show examples of untreated and digested fusion proteins evaluated in CTLL-2 proliferation assay.

MMP9 = target: T1, MMP9 (Mus musculus, UniProt P41245); experiment: Cleavage of fusion protein by MMP9 protease (SDS-PAGE / Western blot); format: biochemical
T1 construct: purchased R&D Systems
Protocol: as §3
Untreated and digested fusion proteins were evaluated for cleavage products by Western blot. The following monoclonal antibodies were used: rat anti-mouse IL-2 antibody (JES6-1A12; ThermoFisher), goat anti-mouse IL-2 polyclonal antibody (AF-402-NA; R&D systems), mouse anti-6xHis monoclonal antibody (MA1-21315, ThermoFisher), Anti-mIgG Fc HRP conjugated (ThermoFisher cat #A16084), and Anti-human IL2 antibody (Invitrogen, cat #MA5-17097, mouse IgG1). Detection was performed using either a goat anti-rat HRP-conjugated antibody, Donkey Anti-goat HRP-conjugated antibody or Goat Anti-mouse HIRP conjugated (Jackson Immuno Research, West Grove, PA) and developed using the SuperSignal West Femto Maximum sensitivity detection reagent (ThermoFisher) following the manufacturer's recommendations.

T1 sequence (P41245 108-730): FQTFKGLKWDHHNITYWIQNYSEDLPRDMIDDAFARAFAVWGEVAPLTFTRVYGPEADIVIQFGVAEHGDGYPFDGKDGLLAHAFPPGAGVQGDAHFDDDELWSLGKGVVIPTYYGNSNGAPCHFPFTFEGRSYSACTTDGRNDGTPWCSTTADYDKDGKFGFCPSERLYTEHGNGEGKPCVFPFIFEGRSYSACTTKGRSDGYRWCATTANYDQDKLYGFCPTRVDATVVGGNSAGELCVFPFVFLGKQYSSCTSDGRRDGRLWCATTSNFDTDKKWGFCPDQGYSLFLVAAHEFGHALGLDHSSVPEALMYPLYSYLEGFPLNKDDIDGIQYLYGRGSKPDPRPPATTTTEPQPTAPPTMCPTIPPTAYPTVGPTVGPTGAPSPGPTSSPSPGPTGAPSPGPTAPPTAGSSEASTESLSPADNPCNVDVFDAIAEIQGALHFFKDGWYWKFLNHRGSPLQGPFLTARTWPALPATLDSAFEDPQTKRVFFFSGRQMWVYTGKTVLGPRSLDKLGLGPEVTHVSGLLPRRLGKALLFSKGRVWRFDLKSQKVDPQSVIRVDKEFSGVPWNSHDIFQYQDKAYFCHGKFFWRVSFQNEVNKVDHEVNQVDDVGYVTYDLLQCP

Molecule: 640 (DVIRDKTKTKIESLK) [Construct 640]
- binds to HSGP, affinity [1]: binds to HSGP with low affinity (DTx protein)

Molecule: 639 (NGRKIRMRCRAIDGD) [Construct 639]
- binds to HSGP, affinity [1]: binds to HSGP with high affinity (DTx protein)

B1: Construct DD: SEQ ID NO 814: m IL2-2x(GHHPH)-MMPscr-2x(G4S)-mIL2Ra(1-215)-mu IgG1 Fc (protein)
chain: APTSSSTSSSTAEAQQQQQQQQQQQQHLEQLLMDLQELLSRMENYRNLKLPRMLTFKFYLPKQATELKDLQCLEDELGPLRHVLDLTQSKSFQLEDAENFISNIRVTVVKLKGSDNTFECQFDDESATVVDFLRRWIAFCQSIISTSPQGHHPHGHHPHGVRLGPGGGGGSGGGGSELCLYDPPEVPNATFKALSYKNGTILNCECKRGFRRLKELVYMRCLGNSWSSNCQCTSNSHDKSRKQVTAQLEHQKEQQTTTDMQKPTQSMHQENLTGHCREPPPWKHEDSKRIYHFVEGQSVHYECIPGYKALQRGPAISICKMKCGKTGWTQPQLTCVDEREHHRFLASEESQGSRNSSPESETSCPITTTDFPQPTETTAMTETFVLTMEYKGCKPCICTVPEVSSVFIFPPKPKDVLTITLTPKVTCVVVDISKDDPEVQFSWFVDDVEVHTAQTQPREEQFNSTFRSVSELPIMHQDWLNGKEFKCRVNSAAFPAPIEKTISKTKGRPKAPQVYTIPPPKEQMAKDKVSLTCMITDFFPEDITVEWQWNGQPAENYKNTQPIMDTDGSYFVYSKLNVQKSNWEAGNTFTCSVLHEGLHNHHTEKSLSHSPGK
- tumor-associated fluorescence relative to Construct GGG (EMT6 tumor): roughly 2 fold

B2: Construct A: SEQ ID NO 100: mIL2-2x(SG4)-MMPcs1-2x(G4S)-IL2Ralpha-6His (protein)
chain: APTSSSTSSSTAEAQQQQQQQQQQQQHLEQLLMDLQELLSRMENYRNLKLPRMLTFKFYLPKQATELKDLQCLEDELGPLRHVLDLTQSKSFQLEDAENFISNIRVTVVKLKGSDNTFECQFDDESATVVDFLRRWIAFCQSIISTSPQSGGGGSGGGGGPLGVRGGGGGSGGGGSELCLYDPPEVPNATFKALSYKNGTILNCECKRGFRRLKELVYMRCLGNSWSSNCQCTSNSHDKSRKQVTAQLEHQKEQQTTTDMQKPTQSMHQENLTGHCREPPPWKHEDSKRIYHFVEGQSVHYECIPGYKALQRGPAISICKMKCGKTGWTQPQLTCVDEREHHRFLASEESQGSRNSSPESETSCPITTTDFPQPTETTAMTETFVLTMEYKHHHHHH
- anti-tumor activity (MC38 tumor; daily intra-tumoral injection, 10 injections, Construct A 70ug/day, r hIL2 5 ug/day): substantially inhibited tumor growth; also recorded: complete elimination of tumor
- tumor establishment after re-challenge with MC38 cells (MC38 tumor; re-inoculated on Day 40, a month after re-challenge): Tumor growth was rejected; also recorded: no tumor mass was established
- greater activity of MMP-9 treated than untreated construct (EC50 comparison) (CTLL-2 cells; CTLL-2 proliferation): 10 fold
- CTLL-2 cell proliferation, MMP-9 treated construct (CTLL-2 cells; cleaved by MMP-9): stimulates CTLL-2 cell proliferation in a dose dependent manner
- time at which cleavage product was detectable (MMP9; +MMP-9 digestion, Western blot): 1 h
- full-length cytokine prodrug remaining (MMP9; overnight +MMP time point): substantially undetectable

Now from value to molecule:

- binding to fibronectin at pH6 vs pH 7.5 (fibronectin): enhanced binding at pH6
- binding to fibronectin (fibronectin; 2 hours): able to bind fibronectin
Molecule: peptide 13: EDANS-conjugated MMP linker peptide with GPLGVRG site; retention motif target pH dependent fibronectin (GGGWSHWGPLGVRG-{EDANS}; also: EDANS fluorophore conjugated at 3' end)

- binding to collagen IV (collagen IV): strongly binds collagen IV
Molecule: peptide 14: EDANS-conjugated MMP linker peptide with GPLGVRG site; retention motif target Collagen IV (KLWVLPKGPLGVRG-{EDANS}; also: EDANS fluorophore conjugated at 3' end)

- binding to collagen IV (collagen IV): binds to a lesser extent
Molecule: peptide 15: EDANS-conjugated MMP linker peptide GGGSG...; retention motif target Collagen I (GGGSGLHERHLNNN-{EDANS}; also: EDANS fluorophore conjugated at 3' end)
